Laboratory results from patent US20260132197A1 (NANJING LEGEND BIOTECH, published 2026).
Changes are numbered by the printed parent chain.

B1: 108VH10.Mc / 108VL10.M1 (antibody, V domains shown)
VH: EVQLVESGGGLVQPGGSLRLSCAASGYSFTHHWISWVRQAPGKGLEWVAMIDPSDSETRLSQKFKDRFTISADTSKNTAYLQMNSLRAEDTAVYYCSRLGRYYFDYWGQGTLVTVSS
VL: DIQMTQSPSSLSASVGDRVTITCRASENVGTYISWYQQKPGKAPKLLIYGASNRYTGVPSRFSGSRSGTDFTLTISSLQPEDFATYYCGESYGHLYTFGQGTKVEIK
notes: 4D5-framework series; constant regions not restated for this series; also called VH10.Mc VL10.M1
B2: 108VH10.Mq / 108VL10.Me (antibody, V domains shown)
VH: B1 VH with Y27F, S28T, T30S, S35H, P53A, Q62D, K63S, F64V, D66G
VL: B1 VL with E27Q, N28S, V29I, G30S, T31S, I33L, S34N, N53S, T56S
notes: 4D5-framework series; constant regions not restated for this series; also called VH10.Mq VL10.Me
B3: 108VH10 / 108VL10.Mb (antibody, V domains shown)
VH: B1 VH with S35H
VL: B1 VL with G50A
notes: 4D5-framework series; constant regions not restated for this series; also called VH10 VL10.Mb
B4: 108VH10.Mf / 108VL10.M1 (antibody, V domains shown)
VH: B1 VH with S35H, S61V, Q62D, K63S, F64V, D66G
VL: B1 VL
notes: 4D5-framework series; constant regions not restated for this series; also called VH10.Mf VL10.M1
B5: 108VH10.Mr / 108VL10.Me (antibody, V domains shown)
VH: B1 VH with Y27F, S28T, T30S, S35H, P53A, S61V, Q62D, K63S, F64V, D66G
VL: B1 VL with E27Q, N28S, V29I, G30S, T31S, I33L, S34N, N53S, T56S
notes: 4D5-framework series; constant regions not restated for this series; also called VH10.Mr VL10.Me
B6: Hu5F9 (antibody, V domains shown)
VH: QVQLVQSGAEVKKPGASVKVSCKASGYTFTNYNMHWVRQAPGQRLEWMGTIYPGNDDTSYNQKFKDRVTITADTSASTAYMELSSLRSEDTAVYYCARGGYRAMDYWGQGTLVTVSS
VL: DIVMTQSPLSLPVTPGEPASISCRSSQSIVYSNGNTYLGWYLQKPGQSPQLLIYKVSNRFSGVPDRFSGSGSGTDFTLKISRVEAEDVGVYYCFQGSHVPYTFGQGTKLEIK

Assays:
[1] = molecular target: T1, Human CD47-C33G (human, UniProt Q08722 19-135); assay: SPR, IgG captured, CD47 in flow; exp 2; estimated, out of instrument limit;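 on kon: rates derived from association and dissociation curves, KD estimated from them, C33G mutein used to avoid CD47 IgV homodimers for true monovalent affinity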
T1 construct: also called CD47 mutein with C33G mutation

[2] = molecular target: T1, Human CD47-C33G; assay: SPR, IgG captured, CD47 in flow; exp 2;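 on kon: rates derived from association and dissociation curves, KD estimated from them, C33G mutein used to avoid CD47 IgV homodimers for true monovalent affinity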
[3] = molecular target: T2, wild type human CD47 (Acro Biosystems, cat. no. CD7-H5227) (human, UniProt Q08722 19-139); assay: SPR, IgG captured, CD47 in flow; exp 2;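 further: rates derived from association and dissociation curves, KD estimated from them, C33G mutein used to avoid CD47 IgV homodimers for true monovalent affinity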
T2 construct: Bought protein used as SPR analyte; also called Human CD47 wt; wild-type CD47

[4] = molecular target: T3, human CD47 on cells (SHP-77 tumor cells, human red blood cells, CCRF-CEM cells, human CD47 CHO-K1 stable cell … (human, UniProt Q08722 19-323)); assay: flow cytometry on human RBCs;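 further: antibody binding measured by flow cytometry as geometric mean fluorescence intensity over a range of antibody concentrations, with EC50 and maximum taken from a sigmoidal dose-response fit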
T3 construct: whole, on cells; also called RBC

[5] = molecular target: T3, human CD47 on cells (SHP-77 tumor …); assay: cell-based or functional assay
[6] = molecular target: T1, Human CD47-C33G; assay: SPR, IgG captured, CD47 in flow; exp 4;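 further: rates fitted from SPR association and dissociation curves, KD estimated from them, the other target is a CD47 C33G mutein, used to obtain true monovalent affinity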
[7] = molecular target: T2, wild type human CD47 (Acro Biosystems, …); assay: SPR, IgG captured, CD47 in flow; exp 4;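 further: rates fitted from SPR association and dissociation curves, KD estimated from them, the other target is a CD47 C33G mutein, used to obtain true monovalent affinity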
[8] = molecular target: T4, cynomolgus CD47 on CHO-K1 stable cell line (cynomolgus, UniProt A0A5F8AK49 19-323 (rhesus entry)); assay: flow cytometry on cynomolgus CD47 CHO-K1 cells; plateau not reached, not accurate
T4 construct: whole, on cells; also called cynomolgus CD47/CHO-K1

[9] = molecular target: T3, human CD47 on cells (SHP-77 tumor …); assay: flow cytometry on SHP-77 cells
[10] = molecular target: T3, human CD47 on cells (SHP-77 tumor …); assay: flow cytometry on human CD47 CHO-K1 cells; plateau not reached, not accurate
[11] = molecular target: T1, Human CD47-C33G; assay: SPR, IgG captured, CD47 in flow; exp 2; remark: listed apart in the source;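 on kon: rates derived from association and dissociation curves, KD estimated from them, C33G mutein used to avoid CD47 IgV homodimers for true monovalent affinity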
[12] = molecular target: T4, cynomolgus CD47 on CHO-K1 stable cell …; assay: flow cytometry on cynomolgus CD47 CHO-K1 cells

| Binder | kon [2] [M⁻¹ s⁻¹] | Kd [3] [nM] | koff [3] [s⁻¹] | kon [3] [M⁻¹ s⁻¹] | EC50 [4] [nM] | Fitted Maximal MFI [4] [MFI] | Kd [6] [nM] | koff [6] [s⁻¹] | kon [6] [M⁻¹ s⁻¹] | Kd [7] [nM] | koff [7] [s⁻¹] | kon [7] [M⁻¹ s⁻¹] | EC50 [8] [nM] | EC50 [9] [nM] | Fitted Maximal MFI [9] [MFI] | EC50 [10] [nM] | Kd [2] [nM] | koff [2] [s⁻¹] | other results |
| --- | --- | --- | --- | --- | --- | --- | --- | --- | --- | --- | --- | --- | --- | --- | --- | --- | --- | --- | --- |
| B1 | 61000 | 21 | 0.0054 | 250000 | – | – | – | – | – | – | – | – | – | – | – | – | – | – | Kd [1]: > 1600 nM; koff [1]: > 0.1 s⁻¹ |
| B2 | – | – | – | – | 3.9 | 19400 | 120 | 0.024 | 190000 | 7.5 | 0.0045 | 600000 | 8.4 | 8 | 27400 | 6.4 | – | – | CCRF-CEM phagocytosis EC50 (nM); plateau not reached [5]: 2.3 nM |
| B3 | 47000 | 38 | 0.011 | 290000 | – | – | – | – | – | – | – | – | – | – | – | – | 330 | 0.016 | fold reduction of mono-valent binding affinity against the straight-graft antibody [11]: 7.7 fold |
| B4 | 49000 | 30 | 0.0071 | 230000 | – | – | – | – | – | – | – | – | – | – | – | – | 290 | 0.014 | fold reduction of mono-valent binding affinity compared to 108VH10 [11]: 6.7 fold |
| B5 | – | – | – | – | 8.1 | 15700 | 160 | 0.025 | 150000 | 8.8 | 0.0031 | 360000 | 49.9 | 14.4 | 25400 | 15.7 | – | – | CCRF-CEM phagocytosis EC50 [5]: 0.43 nM; CCRF-CEM phagocytosis, Phagocytosis (%) [5]: 49.8% |
| B6 | – | – | – | – | – | – | – | – | – | – | – | – | – | – | – | – | – | – | EC50 [12]: 0.6 nM |
